The source of these data is paper PMC2990333.

A word on the stoichiometry N: it is the number of molecules, sites or subunits per partner or assembly.

The target of experiment [1] is 25kD protein (immunoreactive P29 form of Drosophila) (Drosophila melanogaster). Description: not stated; dimerisation of the 25kD protein under in vitro conditions.
Experiment [2] has as its target Aedes aegypti sterol carrier protein-2-like-2 (SCP-2-L2) (Aedes aegypti). Description: crystal structure; ligand-bound X-ray structure at 1.7-angstrom resolution, with bound fatty acid.
The target in experiment [3] is OBP48 expressed in lepidopteran cells (Anopheles gambiae). In words: co-IP + cross-linking; OBPs expressed in lepidopteran cells, examined for in vitro interactions in the absence of exogenously added ligands; chemical cross-linking.

For “25kD protein (immunoreactive P29 form of Drosophila) (natural protein)”, in experiment [1], the stoichiometry N was 2. Regarding “Aedes aegypti sterol carrier protein-2-like-2 (SCP-2-L2) (natural protein)”, the stoichiometry N in experiment [2] amounted to 2. Turning to “OBP48 expressed in lepidopteran cells (natural protein)”, in experiment [3], the stoichiometry N came out at 2.
